The supplement of paper PMC11246515
± gives the standard deviation of the averaged measurements.

Assay: total protein half-life in vivo (active degradation + dilution); higher = more stable protein
[1] = E. coli NCM3722 delta-clpP delta-lon delta-hslV, growth: N-lim chemostat, doubling time 6 h
[2] = E. coli NCM3722 delta-clpP, growth: N-lim chemostat, doubling time 6 h
[3] = E. coli NCM3722 delta-hslV, growth: N-lim chemostat, doubling time 6 h
[4] = E. coli NCM3722 delta-lon, growth: N-lim chemostat, doubling time 6 h
[5] = E. coli NCM3722 delta-smpB, growth: N-lim chemostat, doubling time 6 h
[6] = wild type E. coli NCM3722, growth: C-lim chemostat, doubling time 3 h
[7] = wild type E. coli NCM3722, growth: C-lim chemostat, doubling time 6 h
[8] = wild type E. coli NCM3722, growth: C-lim chemostat, doubling time 12 h
[9] = wild type E. coli NCM3722, growth: N-lim chemostat, doubling time 6 h
[10] = wild type E. coli NCM3722, growth: N-lim chemostat, doubling time 12 h
[11] = wild type E. coli NCM3722, growth: P-lim chemostat, doubling time 6 h
[12] = wild type E. coli NCM3722, growth: P-lim chemostat, doubling time 12 h

Sequence | total protein half-life in vivo [1] [h] | total protein half-life in vivo [2] [h] | total protein half-life in vivo [3] [h] | total protein half-life in vivo [4] [h] | total protein half-life in vivo [5] [h] | total protein half-life in vivo [6] [h] | total protein half-life in vivo [7] [h] | total protein half-life in vivo [8] [h] | total protein half-life in vivo [9] [h] | total protein half-life in vivo [10] [h] | total protein half-life in vivo [11] [h] | total protein half-life in vivo [12] [h]
MRCKGFLFDLDGTLVDSLPAVERAWSNWARRHGLAPEEVLAFIHGKQAITSLRHFMAGKSEADIAAEFTRLEHIEATETEGITALPGAIALLSHLNKAGIPWAIVTSGSMPVARARHKIAGLPAPEVFVTAERVKRGKPEPDAYLLGAQLLGLAPQECVVVEDAPAGVLSGLAAGCHVIAVNAPADTPRLNEVDLVLHSLEQITVTKQPNGDVIIQ | 4.84 ± 0.48 | 5.45 ± 1.7 | 4.91 ± 0.61 | 5.46 ± 0.45 | 3.992 ± 0.0097 | 3.06 ± 0.1 | 6.07 ± 0.31 | 10.1 ± 0.43 | 4.54 ± 0.39 | 6.8 ± 0.18 | 5.77 ± 0.43 | 11.4 ± 0.17
MRFLLGVLMLMISGSALATIDVLQFKDEAQEQQFRQLTEELRCPKCQNNSIADSNSMIATDLRQKVYELMQEGKSKKEIVDYMVARYGNFVTYDPPLTPLTVLLWVLPVVAIGIGGWVIYARSRRRVRVVPEAFPEQSVPEGKRAGYVVYLPGIVVALIVAGVSYYQTGNYQQVKIWQQATAQAPALLDRALDPKADPLNEEEMSRLALGMRTQLQKNPGDIEGWIMLGRVGMALGNASIATDAYATAYRLDPKNSDAALGYAEALTRSSDPNDNRLGGELLRQLVRTDHSNIRVLSMYAFNAFEQQRFGEAVAAWEMMLKLLPANDTRRAVIERSIAQAMQHLSPQESK [P0ABM9] | 3.85 ± 0.42 | – | 3.5 ± 0.5 | – | 3.32 ± 0.057 | 3.26 ± 0.15 | – | 9.451 ± 0.016 | 3.8 ± 0.21 | 5.979 ± 0.034 | 3.91 ± 0.59 | 6.58 ± 1.2
MRFMQRSKDSLAKWLSAILPVVIVGLVGLFAVTVIRDYGRASEADRQALLEKGNVLIRALESGSRVGMGMRMHHVQQQALLEEMAGQPGVLWFAVTDAQGIIILHSDPDKVGRALYSPDEMQKLKPEENSRWRLLGKTETTPALEVYRLFQPMSAPWRHGMHNMPRCNGKAVPQVDAQQAIFIAVDASDLVATQSGEKRNTLIILFALATVLLASVLSFFWYRRYLRSRQLLQDEMKRKEKLVALGHLAAGVAHEIRNPLSSIKGLAKYFAERAPAGGEAHQLAQVMAKEADRLNRVVSELLELVKPTHLALQAVDLNTLINHSLQLVSQDANSREIQLRFTANDTLPEIQADPDRLTQVLLNLYLNAIQAIGQHGVISVTASESGAGVKISVTDSGKGIAADQLDAIFTPYFTTKAEGTGLGLAVVHNIVEQHGGTIQVASQEGKGSTFTLWLPVNITRKDPQG | 5.89 | – | 6.11 ± 0.45 | – | 5.27 ± 0.29 | 3.57 ± 0.24 | 4.91 | 13.4 ± 2.7 | 5.12 | 14.1 | – | 11.4 ± 0.38
MRFSHRLFLLLILLLTGAPILAQEPSDVAKNVRMMVSGIVSYTRWPALSGPPKLCIFSSSRFSTALQENAATSLPYLPVIIHTQQEAMISGCNGFYFGNESPTFQMELTEQYPSKALLLIAEQNTECIIGSAFCLIIHNNDVRFAVNLDALSRSGVKVNPDVLMLARKKNDG | 3.28 ± 0.12 | – | 2.98 ± 0.17 | – | 3.1 | – | > 8 | 6.32 | 2.98 | 4.75 | 5 | 6.03 ± 0.098
MRFSRFIIGLTSCIAFSVQAANVDEYITQLPAGANLALMVQKVGASAPAIDYHSQQMALPASTQKVITALAALIQLGPDFRFTTTLETKGNVENGVLKGDLVARFGADPTLKRQDIRNMVATLKKSGVNQIDGNVLIDTSIFASHDKAPGWPWNDMTQCFSAPPAAAIVDRNCFSVSLYSAPKPGDMAFIRVASYYPVTMFSQVRTLPRGSAEAQYCELDVVPGDLNRFTLTGCLPQRSEPLPLAFAVQDGASYAGAILKDELKQAGITWSGTLLRQTQVNEPGTVVASKQSAPLHDLLKIMLKKSDNMIADTVFRMIGHARFNVPGTWRAGSDAVRQILRQQAGVDIGNTIIADGSGLSRHNLIAPATMMQVLQYIAQHDNELNFISMLPLAGYDGSLQYRAGLHQAGVDGKVSAKTGSLQGVYNLAGFITTASGQRMAFVQYLSGYAVEPADQRNRRIPLVRFESRLYKDIYQNN | 6.48 ± 0.36 | 6.25 ± 0.35 | 6.87 ± 0.72 | 6.194 ± 0.044 | 6.051 ± 0.02 | 3.24 ± 0.54 | 6.21 ± 0.86 | 12.7 ± 0.72 | 6.15 ± 0.52 | 13.4 ± 0.64 | 6.25 ± 0.55 | 12.6 ± 0.42
MRFSTQMMYQQNMRGITNSQAEWMKYGEQMSTGKRVVNPSDDPIAASQAVVLSQAQAQNSQYTLARTFATQKVSLEESVLSQVTTAIQNAQEKIVYASNGTLSDDDRASLATDIQGLRDQLLNLANTTDGNGRYIFAGYKTETAPFSEEKGKYVGGAESIKQQVDASRSMVIGHTGDKIFDSITSNAVAEPDGSASETNLFAMLDSAIAALKTPVADSEADKETAAAALDKTNRGLKNSLNNVLTVRAELGTQLNELESLDSLGSDRALGQTQQMSDLVDVDWNATISSYIMQQTALQASYKAFTDMQGLSLFQLSK | 2.65 ± 0.11 | > 8 | – | – | – | 0.265 ± 0.026 | 0.393 ± 0.063 | 0.399 ± 0.39 | – | – | – | –
MRGKILLYQLKYRWQSLSIFGCFLCKMTLFRYQKIIYDTGVHQMRSFFYTICSSEQQESITDHHSLAEICQKFNILPEHVVIEQVDIKEVVSEQRLLRQLIHHEMNRQDTLVIPDLSCLGRTVEDLQNILFFCLQKEMFIYSYHPASRIEPSAESCLSFLIARQDTIDIHNLKSTKSRYRHVKKKLGRKEGSKYRRDITILKKGGFTQAEIAKKLSISLSTVKRHWNNGIIG | 6.03 | – | – | – | – | – | – | – | – | – | – | –
MRHSLPYRMLRKRPMKLSTTVILMVSAVLFSVLLVVHLIYFSQISDMTRDGLANKALAVARTLADSPEIRQGLQKKPQESGIQAIAEAVRKRNDLLFIVVTDMQSLRYSHPEAQRIGQPFKGDDILKALNGEENVAINRGFLAQALRVFTPIYDENHKQIGVVAIGLELSRVTQQINDSRWSIIWSVLFGMLVGLIGTCILVKVLKKILFGLEPYEISTLFEQRQAMLQSIKEGVVAVDDRGEVTLINDAAQELLNYRKSQDDEKLSTLSHSWSQVVDVSEVLRDGTPRRDEEITIKDRLLLINTVPVRSNGVIIGAISTFRDKTEVRKLMQRLDGLVNYADALRERSHEFMNKLHVILGLLHLKSYKQLEDYILKTANNYQEEIGSLLGKIKSPVIAGFLISKINRATDLGHTLILNSESQLPDSGSEDQVATLITTLGNLIENALEALGPEPGGEISVTLHYRHGWLHCEVNDDGPGIAPDKIDHIFDKGVSTKGSERGVGLALVKQQVENLGGSIAVESEPGIFTQFFVQIPWDGERSNR [P0AEC8] | 6.93 ± 0.11 | 6.33 | 5.74 ± 0.12 | 5.85 ± 0.23 | 5.57 ± 0.62 | 2.98 ± 0.12 | 5.883 ± 0.049 | 11.9 ± 0.56 | 6.25 ± 0.84 | 9.85 ± 3 | 6.32 | 11.6 ± 0.52
